Measured values reported in patent publication US20140348747A1 (published 2014).
Residue numbers refer to the chain shown, from its start.

Tests used:
[1] = target: T1, wild-type non-luminescent polypeptide (WT fragment of residues 1-156 of NanoLuc); test: luminescence complementation; PBS
T1 chain: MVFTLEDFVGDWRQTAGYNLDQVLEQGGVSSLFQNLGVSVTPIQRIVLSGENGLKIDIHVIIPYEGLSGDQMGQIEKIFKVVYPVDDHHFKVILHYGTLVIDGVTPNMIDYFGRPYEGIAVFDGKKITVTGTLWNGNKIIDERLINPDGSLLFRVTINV

[2] = target: T1, wild-type non-luminescent polypeptide …; test: luminescence complementation; average HeLa, HEK293, CHO lysates
[3] = target: T1, wild-type non-luminescent polypeptide …; test: luminescence complementation; NanoGlo
[4] = target: T1, wild-type non-luminescent polypeptide …; test: kinetics (koff/kon)
[5] = target: T2, NLpoly 11S (12-A51T); test: kinetics (koff/kon)
T2 chain: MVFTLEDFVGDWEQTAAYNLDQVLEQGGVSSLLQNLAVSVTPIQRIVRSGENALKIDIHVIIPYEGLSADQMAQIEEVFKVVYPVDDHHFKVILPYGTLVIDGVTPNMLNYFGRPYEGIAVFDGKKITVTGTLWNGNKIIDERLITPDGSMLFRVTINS

[6] = target: T3, NLpoly 5A2 (G15A/G35A/G51A/G67A/G71A); test: luminescence complementation, one-site specific binding; replicate 1
T3 chain: T1 chain with G17A, G37A, G53A, G69A, G73A

[7] = target: T3, NLpoly 5A2 (G15A/G35A/G51A/G67A/G71A); test: luminescence complementation, one-site specific binding; replicate 3
[8] = target: T3, NLpoly 5A2 (G15A/G35A/G51A/G67A/G71A); test: luminescence complementation, one-site specific binding; replicate 2
[9] = target: 5P+VT; test: luminescence complementation
[10] = target: 5P+V; test: luminescence complementation
[11] = target: 5P+VTG; test: luminescence complementation

NVTGYRLFKKISN [NLpep79]
Kd [1]: 0.487 µM
Kd [2]: 5.13 µM
Kd [3]: 2.89 µM
Kd [4]: 5580 µM
Kd [5]: 42 µM

Ac-VSGWRLFKKIS-NH2 [NLpep86]
Kd [6]: 0.0991 µM
Kd [7]: 0.0933 µM
Kd [8]: 0.11 µM

GVTGWRLCERILA [NLpepWT]
Kd [1]: 1.34 µM
Kd [2]: 8.35 µM
Kd [3]: 20.6 µM
Kd [5]: 629 µM

Ac-SGWRLFKKISN-NH2 [NLpep81]
Kd [9]: 0.218 µM
Kd [10]: 0.15 µM
Kd [11]: 0.283 µM

Ac-GWRLFKKISN-NH2 [NLpep82]
Kd [9]: 0.198 µM
Kd [10]: 0.128 µM
Kd [11]: 0.273 µM

Ac-VSGWRLFKKISN-NH2 [NLpep80]
Kd [9]: 0.0096 µM
Kd [10]: 0.0103 µM
Kd [11]: 0.0075 µM
